Among the targets are Flag-SARA, full length (UniProt O95405); Flag-Smad3, full length (UniProt P84022); Flag-Smad4, full length (UniProt Q13485).
Holding throughout (test): co-IP; LUMIER: Renilla luciferase-Smad3 and Flag-tagged partner co-expressed with constitutively active Alk5 in HEK-293; Flag protein captured from cleared lysate (TNE: 10 mM Tris-HCl pH 7.8, 150 mM NaCl, 1 mM EDTA, 1% Igepal CA-630) on anti-Flag 96-well plates, 2 h at 4 °C; co-precipitated Renilla luciferase activity, TrxGA background subtracted, percent of wild-type Smad3

Assay [1] addresses Flag-SkiW274E, full length (UniProt P12755).
Assay [2] has as its target SARA Smad-binding domain (amino acids 665–721) on the 3xFlag-thioredoxin scaffold (UniProt O95405).
Assay [3] has as its target SIP1 Smad-binding domain (amino acids 315–487) on the 3xFlag-thioredoxin scaffold (UniProt Q9R0G7).
Assay [4] has as its target Ski Smad-binding domain (amino acids 2–56) on the 3xFlag-thioredoxin scaffold (UniProt P12755).
Assay [5] concerns the target Smurf2 Smad-binding domain (amino acids 252–330) on the Flag-thioredoxin scaffold (UniProt Q9HAU4).

Renilla luciferase-Smad3 Del-PPGY (182–185), sequence (P84022 whole entry): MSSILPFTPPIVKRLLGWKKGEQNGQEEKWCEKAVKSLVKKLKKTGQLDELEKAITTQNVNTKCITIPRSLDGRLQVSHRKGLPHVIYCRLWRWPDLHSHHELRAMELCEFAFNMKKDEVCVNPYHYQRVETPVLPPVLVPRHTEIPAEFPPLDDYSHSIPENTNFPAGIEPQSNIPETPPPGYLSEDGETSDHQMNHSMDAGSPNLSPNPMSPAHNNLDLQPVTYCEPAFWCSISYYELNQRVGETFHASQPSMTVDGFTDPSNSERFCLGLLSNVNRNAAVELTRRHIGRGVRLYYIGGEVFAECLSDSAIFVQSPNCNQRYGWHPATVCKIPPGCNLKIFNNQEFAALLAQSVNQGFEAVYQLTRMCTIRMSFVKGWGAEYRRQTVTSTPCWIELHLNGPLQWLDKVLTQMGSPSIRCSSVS
SIP1 Smad-binding domain (amino acids 315–487) on the 3xFlag-thioredoxin scaffold, sequence (Q9R0G7 315-487): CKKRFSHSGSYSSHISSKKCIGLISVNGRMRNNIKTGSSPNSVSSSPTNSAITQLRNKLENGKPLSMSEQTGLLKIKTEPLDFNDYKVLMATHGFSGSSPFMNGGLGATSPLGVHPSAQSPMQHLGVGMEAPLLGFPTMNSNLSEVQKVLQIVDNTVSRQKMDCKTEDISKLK
Flag-Smad3, full length, sequence (P84022 whole entry): as the sequence (P84022 whole entry) above
Smurf2 Smad-binding domain (amino acids 252–330) on the Flag-thioredoxin scaffold, sequence (Q9HAU4 252-330): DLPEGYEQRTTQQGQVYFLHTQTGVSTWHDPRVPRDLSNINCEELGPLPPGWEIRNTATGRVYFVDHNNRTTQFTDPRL
Flag-Smad4, full length, sequence (Q13485 whole entry): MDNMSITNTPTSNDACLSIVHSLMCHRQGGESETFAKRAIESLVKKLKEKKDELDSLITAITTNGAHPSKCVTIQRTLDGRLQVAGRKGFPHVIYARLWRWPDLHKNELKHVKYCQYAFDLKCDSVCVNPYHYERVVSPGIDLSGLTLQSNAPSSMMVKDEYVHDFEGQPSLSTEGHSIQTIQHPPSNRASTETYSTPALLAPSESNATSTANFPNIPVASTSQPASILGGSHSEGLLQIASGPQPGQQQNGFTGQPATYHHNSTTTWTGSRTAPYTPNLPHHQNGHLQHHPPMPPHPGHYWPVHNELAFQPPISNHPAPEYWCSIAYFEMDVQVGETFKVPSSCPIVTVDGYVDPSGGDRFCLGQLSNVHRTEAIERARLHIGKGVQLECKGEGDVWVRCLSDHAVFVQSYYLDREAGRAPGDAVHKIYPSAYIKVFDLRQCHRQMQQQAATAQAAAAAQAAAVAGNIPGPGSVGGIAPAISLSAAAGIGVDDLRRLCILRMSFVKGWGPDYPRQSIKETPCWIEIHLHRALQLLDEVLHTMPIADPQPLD
SARA Smad-binding domain (amino acids 665–721) on the 3xFlag-thioredoxin scaffold, sequence (O95405 767-823): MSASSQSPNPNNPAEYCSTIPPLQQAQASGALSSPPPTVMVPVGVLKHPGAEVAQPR
Flag-SARA, full length, sequence (O95405 whole entry): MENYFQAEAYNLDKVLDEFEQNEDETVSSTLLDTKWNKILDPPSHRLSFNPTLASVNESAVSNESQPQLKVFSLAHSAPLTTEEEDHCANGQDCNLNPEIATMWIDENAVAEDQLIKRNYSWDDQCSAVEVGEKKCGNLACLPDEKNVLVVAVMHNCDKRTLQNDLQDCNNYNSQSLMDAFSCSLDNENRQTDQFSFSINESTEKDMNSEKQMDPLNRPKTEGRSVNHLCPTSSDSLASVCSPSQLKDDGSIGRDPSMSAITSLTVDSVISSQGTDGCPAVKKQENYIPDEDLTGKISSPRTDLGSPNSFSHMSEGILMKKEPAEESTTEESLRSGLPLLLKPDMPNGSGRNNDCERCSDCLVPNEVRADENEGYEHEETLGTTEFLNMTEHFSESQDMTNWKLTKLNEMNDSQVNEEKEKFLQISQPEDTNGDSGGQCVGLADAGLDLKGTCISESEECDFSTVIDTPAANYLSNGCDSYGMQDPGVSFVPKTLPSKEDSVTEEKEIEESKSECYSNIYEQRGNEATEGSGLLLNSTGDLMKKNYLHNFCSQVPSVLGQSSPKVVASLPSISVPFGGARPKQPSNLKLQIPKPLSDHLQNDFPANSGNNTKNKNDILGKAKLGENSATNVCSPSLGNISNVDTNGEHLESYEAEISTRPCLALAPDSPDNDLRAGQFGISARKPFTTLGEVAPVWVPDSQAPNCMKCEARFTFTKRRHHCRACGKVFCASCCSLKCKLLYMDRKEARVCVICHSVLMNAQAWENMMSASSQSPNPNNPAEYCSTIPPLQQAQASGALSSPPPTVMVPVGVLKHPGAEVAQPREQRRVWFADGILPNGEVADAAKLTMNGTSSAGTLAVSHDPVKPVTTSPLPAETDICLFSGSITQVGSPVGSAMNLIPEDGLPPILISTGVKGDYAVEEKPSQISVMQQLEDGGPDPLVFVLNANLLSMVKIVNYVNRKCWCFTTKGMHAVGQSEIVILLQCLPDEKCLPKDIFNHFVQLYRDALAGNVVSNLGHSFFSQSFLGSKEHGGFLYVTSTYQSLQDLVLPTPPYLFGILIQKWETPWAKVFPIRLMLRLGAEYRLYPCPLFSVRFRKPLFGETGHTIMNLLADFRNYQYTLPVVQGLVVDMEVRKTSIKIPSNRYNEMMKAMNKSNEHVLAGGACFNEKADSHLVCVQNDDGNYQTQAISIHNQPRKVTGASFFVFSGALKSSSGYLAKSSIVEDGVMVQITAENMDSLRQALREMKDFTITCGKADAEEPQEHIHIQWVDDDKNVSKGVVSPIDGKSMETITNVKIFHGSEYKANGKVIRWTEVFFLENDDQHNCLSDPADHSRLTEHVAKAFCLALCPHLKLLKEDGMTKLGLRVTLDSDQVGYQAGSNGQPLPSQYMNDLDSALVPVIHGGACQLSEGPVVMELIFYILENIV
Flag-SkiW274E, full length, sequence (P12755 whole entry W274E, the tested form may be a part): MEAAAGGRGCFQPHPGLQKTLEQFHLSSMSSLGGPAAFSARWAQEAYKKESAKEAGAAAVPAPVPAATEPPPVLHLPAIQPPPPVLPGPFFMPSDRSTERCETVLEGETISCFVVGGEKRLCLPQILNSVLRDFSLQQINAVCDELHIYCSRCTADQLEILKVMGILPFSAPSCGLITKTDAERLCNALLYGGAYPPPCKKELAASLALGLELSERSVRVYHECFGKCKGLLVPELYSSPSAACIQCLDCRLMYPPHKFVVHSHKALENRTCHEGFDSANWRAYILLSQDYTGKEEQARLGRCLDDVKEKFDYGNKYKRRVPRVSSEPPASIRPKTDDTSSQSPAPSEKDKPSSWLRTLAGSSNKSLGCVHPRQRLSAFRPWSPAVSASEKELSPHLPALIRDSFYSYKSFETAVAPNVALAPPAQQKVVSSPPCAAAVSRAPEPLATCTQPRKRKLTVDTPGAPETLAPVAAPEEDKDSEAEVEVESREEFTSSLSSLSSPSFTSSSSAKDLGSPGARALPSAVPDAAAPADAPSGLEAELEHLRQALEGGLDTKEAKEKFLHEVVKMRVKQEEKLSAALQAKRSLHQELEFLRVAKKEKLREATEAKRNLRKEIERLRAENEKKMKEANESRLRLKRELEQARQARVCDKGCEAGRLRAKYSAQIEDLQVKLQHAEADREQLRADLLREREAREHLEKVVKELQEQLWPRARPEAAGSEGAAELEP
Ski Smad-binding domain (amino acids 2–56) on the 3xFlag-thioredoxin scaffold, sequence (P12755 2-56): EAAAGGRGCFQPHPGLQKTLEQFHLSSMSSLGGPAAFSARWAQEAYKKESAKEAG

On to “Renilla luciferase-Smad3 Del-PPGY (182–185) (from UniProt P84022 1-425) (natural protein)”, for which the percent binding relative to wild-type Smad3 was 158% with Flag-SARA, full length; 83% in assay [1]; 86% with Flag-Smad3, full length; 120% with Flag-Smad4, full length; 129% in assay [2]; 200% in assay [3]. Further, the percent binding relative to wild-type Smad3 in assay [4] came to 160%; in assay [5], 3%.

The record behind these values is PMC3176292.
